US7763418B2, “Detection of Rho proteins” (Cytoskeleton, Inc., priority 2005, dated 2010)

Molecular target: T1, Rac1 (61L) binding to POSH-GBD (Homo sapiens, UniProt P63000, Q61L)
T1 construct: His; purchased Cytoskeleton Inc. R6101
Assay: Rac1:POSH G-LISA competition (drug discovery application)
Procedure: Active Rho protein (typically 7-15 μg total cell lysate or 1-5 ng of constitutively active recombinant protein) were either added directly to the effector bound G-LISA plate (Rac1 and Cdc42 G-LISAs) or diluted with an equal volume of Binding Buffer (20% PEG 8000, Sigma, St. Louis, Mo.) prior to adding to effector bound plates (RhoA G-LISA). The reactions were incubated for 30 minutes at 4° C. on a microtiter titer plate shaker after which wells were washed once with 200 μl of PBST (PBS pH 7.2, 0.05% Tween-20) and immediately treated with 200 μl of Antigen Presenting Buffer (1% trichloroacetic acid (TCA)) for 2-5 minutes at room temperature. Wells were then washed three times with 200 μl each of PBST and primary antibody is added typically at 1 μg/ml (RhoA specific), 0.25 μg/ml (Rac1 specific), 1 μg/ml (Cdc42 specific) and incubated at room temperature for 45 minutes (incubation at 4° C. gave similar results). Wells are washed three times with 200 μl each of PBST and incubated with appropriate secondary antibody for 45 minutes at room temperature (incubation at 4° C. gave similar results). […] After three washes each of 200 μl PBST the activated Rho proteins are detected using absorbance or luminescence detection as described below. […]

B1: ROCK-GST: RhoA effector ROCK-GBD peptide, negative control inhibitor in Rac1:POSH G-LISA (protein)
chain: EAEQYFSTLYKTQVKELKEEIEEKNRENLKKIQELQNEKETLATQLDLAETKAESEQLARGLLEEQYFELTQESKKAASRNRQEITDKDHTVSRLEEANSMLTKDIEILRRENEELTEKMKKAEEEYKLEKEEEISNLKAAFEKNINTERTLKTQAVNKLAEIMNRKDFKIDRKKANT
modifications: left off: a dimerising Fc or GST
IC50 relative to PAK: approximately 80 times
